We go through 2 substances from publication PMC8626645 (Molecular Pharmacology, 2021).

The conditions of series [1]: in vivo; cited from earlier work. From the text:
Pathologic increases in blood glucose, the central metabolic defect in T2D, occur chiefly because of failure of pancreatic β cells to release enough of the glucoregulatory hormone insulin and overweight-related tissue resistance to insulin action.

Series [2] has as its target SNAP-GLP-1R (HEK293-SNAP-GLP-1R cells) (UniProt P43220). As to the kind of experiment: FRET or BRET. In general terms: BRET reads energy transfer from a luciferase to a nearby fluorophore.
UniProt P43220, sequence (P43220 24-463): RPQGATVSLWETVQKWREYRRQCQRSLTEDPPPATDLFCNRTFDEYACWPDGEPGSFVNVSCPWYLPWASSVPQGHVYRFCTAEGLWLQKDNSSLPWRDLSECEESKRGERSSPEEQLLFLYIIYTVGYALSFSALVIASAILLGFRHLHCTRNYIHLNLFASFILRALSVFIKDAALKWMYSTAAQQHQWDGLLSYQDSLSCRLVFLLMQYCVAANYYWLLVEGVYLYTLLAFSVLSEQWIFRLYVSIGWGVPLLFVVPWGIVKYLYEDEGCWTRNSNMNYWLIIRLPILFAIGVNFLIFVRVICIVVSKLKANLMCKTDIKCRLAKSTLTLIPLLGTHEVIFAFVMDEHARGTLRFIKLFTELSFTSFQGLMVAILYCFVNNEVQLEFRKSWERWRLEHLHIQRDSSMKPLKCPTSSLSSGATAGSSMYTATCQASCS

On to “GLP-1(7-36)NH2: the endogenous ligand for GLP-1R”, for which, in series [1], the “inactivation in the circulation” value is on record as “enzymatically inactivated in the circulation within minutes”. In turn, “exendin-4 (from UniProt P26349 48-87) (peptide)” yielded a Log Ki (M) in series [2] of -9.2 log M.
